Data taken from US20230143604A1, “QW DOSING OF GIP RECEPTOR AGONIST PEPTIDE COMPOUNDS AND USES THEREOF” (TAKEDA PHARMACEUTICAL COMPANY LIMITED, priority 2020, published 2023).
Starred links: 1 amine or outer side, 2 acyl side, 3 side chain; linkers in the order of their positions; H or OH if unused. Non-standard residues stand in square brackets, D forms with d. Groups on a side chain read outwards from the residue. No end group written: not given here. *: point of attachment. C18 diacid = O=C(O)CCCCCCCCCCCCCCCCC(=O)*; C17 diacid = O=C(O)CCCCCCCCCCCCCCCC(=O)*; γGlu = O=C(O)[C@H](CCC(=O)[*:2])N[*:1]; NMeY = CN[C@@H](Cc1ccc(O)cc1)C(=O)O; AEEA = NCCOCCOCC(=O)O; E1 = not defined here; K1 = not defined here; Aib = CC(C)(N)C(=O)O

B1: Compound No. 124 (peptide)
peptide: YXEGTFISDYSIAXDRXAQKDFVEWLLAQSPG
modifications: N-methyl Tyr 1; Aib at 2,17; Lys(G5-C18 diacid) at 14; 'K1' at 20 and 'E1' at 24 as printed; C-terminal OH
B2: Compound No. 110 (peptide)
peptide: [NMeY][Aib]EGTFISDYSI[Aib]LDR[Aib]AQ[Aib]K([AEEA-AEEA-γGlu-γGlu-C18 diacid])FVEWLLAQKG-OH
modifications: N-terminus assumed
SMILES: CC[C@H](C)[C@H](NC(=O)[C@H](Cc1ccccc1)NC(=O)[C@@H](NC(=O)CNC(=O)[C@H](CCC(=O)O)NC(=O)C(C)(C)NC(=O)[C@H](Cc1ccc(O)cc1)NC)[C@@H](C)O)C(=O)N[C@@H](CO)C(=O)N[C@@H](CC(=O)O)C(=O)N[C@@H](Cc1ccc(O)cc1)C(=O)N[C@@H](CO)C(=O)N[C@H](C(=O)NC(C)(C)C(=O)N[C@@H](CC(C)C)C(=O)N[C@@H](CC(=O)O)C(=O)N[C@@H](CCCNC(=N)N)C(=O)NC(C)(C)C(=O)N[C@@H](C)C(=O)N[C@@H](CCC(N)=O)C(=O)NC(C)(C)C(=O)N[C@@H](CCCCNC(=O)COCCOCCNC(=O)COCCOCCNC(=O)CC[C@H](NC(=O)CC[C@H](NC(=O)CCCCCCCCCCCCCCCCC(=O)O)C(=O)O)C(=O)O)C(=O)N[C@@H](Cc1ccccc1)C(=O)N[C@H](C(=O)N[C@@H](CCC(=O)O)C(=O)N[C@@H](Cc1c[nH]c2ccccc12)C(=O)N[C@@H](CC(C)C)C(=O)N[C@@H](CC(C)C)C(=O)N[C@@H](C)C(=O)N[C@@H](CCC(N)=O)C(=O)N[C@@H](CCCCN)C(=O)NCC(=O)O)C(C)C)[C@@H](C)CC
B3: Compound No. 10 (peptide)
peptide: [NMeY][Aib]EGTFISDYSIAK([AEEA-AEEA-γGlu-C17 diacid])DR[Aib]AQ[Aib]NFVNWLLAQS-OH
modifications: N-terminus assumed
SMILES: CC[C@H](C)[C@H](NC(=O)[C@H](CO)NC(=O)[C@H](Cc1ccc(O)cc1)NC(=O)[C@H](CC(=O)O)NC(=O)[C@H](CO)NC(=O)[C@@H](NC(=O)[C@H](Cc1ccccc1)NC(=O)[C@@H](NC(=O)CNC(=O)[C@H](CCC(=O)O)NC(=O)C(C)(C)NC(=O)[C@H](Cc1ccc(O)cc1)NC)[C@@H](C)O)[C@@H](C)CC)C(=O)N[C@@H](C)C(=O)N[C@@H](CCCCNC(=O)COCCOCCNC(=O)COCCOCCNC(=O)CC[C@H](NC(=O)CCCCCCCCCCCCCCCC(=O)O)C(=O)O)C(=O)N[C@@H](CC(=O)O)C(=O)N[C@@H](CCCNC(=N)N)C(=O)NC(C)(C)C(=O)N[C@@H](C)C(=O)N[C@@H](CCC(N)=O)C(=O)NC(C)(C)C(=O)N[C@@H](CC(N)=O)C(=O)N[C@@H](Cc1ccccc1)C(=O)N[C@H](C(=O)N[C@@H](CC(N)=O)C(=O)N[C@@H](Cc1c[nH]c2ccccc12)C(=O)N[C@@H](CC(C)C)C(=O)N[C@@H](CC(C)C)C(=O)N[C@@H](C)C(=O)N[C@@H](CCC(N)=O)C(=O)N[C@@H](CO)C(=O)O)C(C)C
B4: Compound No. 119 (peptide)
peptide: [NMeY][Aib]EGTFISDYSIALDR[Aib]AQ[Aib]K([AEEA-AEEA-γGlu-γGlu-C18 diacid])FVEWLLAQSPG-OH
modifications: N-terminus assumed
SMILES: CC[C@H](C)[C@H](NC(=O)[C@H](CO)NC(=O)[C@H](Cc1ccc(O)cc1)NC(=O)[C@H](CC(=O)O)NC(=O)[C@H](CO)NC(=O)[C@@H](NC(=O)[C@H](Cc1ccccc1)NC(=O)[C@@H](NC(=O)CNC(=O)[C@H](CCC(=O)O)NC(=O)C(C)(C)NC(=O)[C@H](Cc1ccc(O)cc1)NC)[C@@H](C)O)[C@@H](C)CC)C(=O)N[C@@H](C)C(=O)N[C@@H](CC(C)C)C(=O)N[C@@H](CC(=O)O)C(=O)N[C@@H](CCCNC(=N)N)C(=O)NC(C)(C)C(=O)N[C@@H](C)C(=O)N[C@@H](CCC(N)=O)C(=O)NC(C)(C)C(=O)N[C@@H](CCCCNC(=O)COCCOCCNC(=O)COCCOCCNC(=O)CC[C@H](NC(=O)CC[C@H](NC(=O)CCCCCCCCCCCCCCCCC(=O)O)C(=O)O)C(=O)O)C(=O)N[C@@H](Cc1ccccc1)C(=O)N[C@H](C(=O)N[C@@H](CCC(=O)O)C(=O)N[C@@H](Cc1c[nH]c2ccccc12)C(=O)N[C@@H](CC(C)C)C(=O)N[C@@H](CC(C)C)C(=O)N[C@@H](C)C(=O)N[C@@H](CCC(N)=O)C(=O)N[C@@H](CO)C(=O)N1CCC[C@H]1C(=O)NCC(=O)O)C(C)C
B5: Compound No. 121 (peptide)
peptide: YXEGTFISDYSIAXDRXAQKDFVEWLLAQRG
modifications: N-methyl Tyr 1; Aib at 2,17; Lys(G5-C18 diacid) at 14; 'K1' at 20 and 'E1' at 24 as printed; C-terminal OH

Tests used:
[1] = biological target: T1, full-length human GIPR with an N-terminal FLAG tag (human, UniProt P48546 22-466); test: cell-based or functional assay
T1 sequence (looked up): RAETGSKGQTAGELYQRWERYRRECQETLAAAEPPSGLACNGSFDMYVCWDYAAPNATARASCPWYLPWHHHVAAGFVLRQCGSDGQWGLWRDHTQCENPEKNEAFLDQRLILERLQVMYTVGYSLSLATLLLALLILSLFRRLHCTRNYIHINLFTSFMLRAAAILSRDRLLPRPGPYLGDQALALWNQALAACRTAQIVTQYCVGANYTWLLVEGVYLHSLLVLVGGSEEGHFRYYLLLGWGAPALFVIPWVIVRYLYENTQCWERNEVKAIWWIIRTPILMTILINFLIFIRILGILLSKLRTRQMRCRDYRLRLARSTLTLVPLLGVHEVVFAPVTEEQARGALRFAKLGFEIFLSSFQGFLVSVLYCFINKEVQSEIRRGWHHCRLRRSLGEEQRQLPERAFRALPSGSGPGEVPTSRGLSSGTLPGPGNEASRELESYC

[2] = biological target: full-length human GLP-1R with an N-terminal FLAG tag (human, UniProt P43220 24-463); test: cell-based or functional assay

| Binder | Human GIPR cAMP EC50, HEK293T [1] [nM] | Human GLP1R cAMP EC50, HEK293T [2] [nM] |
| --- | --- | --- |
| YXEGTFISDYSIAXDRXAQXDFVNWLLAQSPG (N-methyl Tyr 1; Aib at 2,17,20; Lys(G5-C20 diacid) at 14; C-terminal OH) [Compound No. 111] | 0.0001 | 14.1 |
| B1 | 0.0003 | 123 |
| YXEGTFISDYSIAXDRXAQRDFVEWLLAQSPG (N-methyl Tyr 1; Aib at 2,17; Lys(G5-C18 diacid) at 14; C-terminal OH) [Compound No. 120] | 0.0003 | 15.8 |
| YXEGTFISDYSIAXDRXAQXNFVNWLLAQSPG (N-methyl Tyr 1; Aib at 2,17,20; Lys(G5-C18 diacid) at 14; C-terminal OH) [Compound No. 114] | 0.0001 | 11.7 |
| YXEGTFISDYSIALDRXAQXDFVNWLLAQSPG (N-methyl Tyr 1; Aib at 2,20; Lys(G5-C18 diacid) at 17; C-terminal OH) [Compound No. 113] | 0.0003 | 13.5 |
| YXEGTFISDYSIAXDRXAQXDFVEWLLAQSPG (N-methyl Tyr 1; Aib at 2,17,20; Lys(G5-C18 diacid) at 14; C-terminal OH) [Compound No. 118] | 0.0007 | 91.2 |
| B2 | 0.0003 | 100 |
| B3 | 0.0002 | 37.2 |
| [NMeY][Aib]EGTFISDYSI[Aib]LDR[Aib]AA[Aib]K([AEEA-AEEA-γGlu-γGlu-C18 diacid])FVNWLLAQRPSSGAPPPS-NH2 [Compound No. 106] | 0.0004 | 12 |
| B4 | 0.0009 | 50.1 |
| [NMeY][Aib]EGTFISDYSI[K1]LDR[E1]AQ[Aib]K([AEEA-AEEA-γGlu-γGlu-C18 diacid])FVNWLLAQRG-OH (reading uncertain; also: 'K1' at 13 and 'E1' at 17, not explained) [Compound No. 122] | 0.0008 | 3.55 |
| [NMeY][Aib]EGTFISDYSI[Aib]LDR[Aib]AA[Aib]K([AEEA-AEEA-γGlu-γGlu-C18 diacid])FVNWLLAQSPSSGAPPPS-NH2 [Compound No. 107] | 0.0004 | 45.7 |
| [NMeY][Aib]EGTFISDYSIALDR[Aib]AQ[Aib]K([GGPAPAPgE-C18 diacid])FVNWLLAQSPG-OH [Compound No. 117] | 0.002 | 44.7 |
| YXEGTFISDYSIXXDRXAQXDFVEWLLAQRG (N-methyl Tyr 1; Aib at 2,13,17,20; Lys(G5-C18 diacid) at 14; C-terminal OH) [Compound No. 108] | 0.0002 | 41.7 |
| B5 | 0.0005 | 89.1 |
| YXEGTFISDYSIALDRXAQXDFVEWLLAQRG (N-methyl Tyr 1; Aib at 2,20; Lys(G5-C18 diacid) at 17; C-terminal OH) [Compound No. 115] | 0.0003 | 40.7 |
| [NMeY][Aib]EGTFISDYSIALDR[Aib]AQ[Aib]K([GGPAPAP-γGlu-C18 diacid])FVNWLLAQSPSSGAPPPS-OH [Compound No. 104] | 0.0005 | 66.1 |
| [NMeY][Aib]EGTFISDYSIAK([GGPAPAP-C18 diacid])DR[Aib]AQ[Aib]DFVNWLLAQSPSSGAPPPS-OH [Compound No. 105] | 0.0005 | 562 |
| [NMeY][Aib]EGTFISDYSIA[K1]DRA[E1]Q[Aib]K([AEEA-AEEA-γGlu-γGlu-C18 diacid])FVNWLLAQRG-OH (reading uncertain; also: 'K1' at 14 and 'E1' at 18, not explained) [Compound No. 123] | 0.0005 | 74.1 |
| [NMeY][Aib]EGTFISDYSI[Aib]LDR[Aib]K([AEEA-AEEA-γGlu-γGlu-C18 diacid])A[Aib]NFVNWLLAQSPSSGAPPPS-NH2 [Compound No. 109] | 0.0004 | 204 |
